Test results reported in the supplement of paper PMC9170038.

Tests used:
MS2 coat protein [1] = experiment: apparent KD of MS2 coat protein; higher = weaker reporter binding; conditions: Eterna round: R101
Protocol: (§1)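 RNA-MaP: designed FMN/MS2 RNA switches (84 nt design region) are transcribed on-chip within common flanks and titrated with SNAP-549-labelled MS2 coat protein (about 1-3000 nM) in 100 mM Tris pH 7.5, 80 mM KCl, 4 mM MgCl2, without or with 200 uM FMN. Median apparent KD per design; activation ratio = KD,OFF / KD,ON.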

MS2 coat protein [2] = experiment: apparent KD of MS2 coat protein; designed switch direction (-1 OFF switch, 1 ON switch): -1; higher = weaker reporter binding; conditions: Eterna round: R98
Protocol: as §1

MS2 coat protein [3] = experiment: apparent KD of MS2 coat protein; designed switch direction (-1 OFF switch, 1 ON switch): 1; higher = weaker reporter binding; conditions: Eterna round: R98
Protocol: as §1

## AAAUAACUCGAAGGAUAUCAGGGUGCACCUCAGUAAAACUGAGGUGCACCCUGAGAAGGUCGAGGAUCACCCGACCUAAAUAAA [#SharedSequence SLExNG1: 5-2] (puzzle (switch architecture): Small Loop Exclusion NG 1)
MS2 coat protein [1]; input ligand: FMN 200 uM
  apparent KD of MS2 coat protein: 19.8 nM
MS2 coat protein [1]; input ligand: none
  apparent KD of MS2 coat protein: 8.38 nM

## AAAUAACUCGAAGGAUAUGACCCUCGAGGUGACUAAAAGUCACCUCGAGGGUCAGAAGGUCGAGGAUCACCCGACCUAAAUAAA [#SharedSequence SLExNG1: 5-1] (puzzle (switch architecture): Small Loop Exclusion NG 1)
MS2 coat protein [1]; input ligand: FMN 200 uM
  apparent KD of MS2 coat protein: 36.8 nM
MS2 coat protein [1]; input ligand: none
  apparent KD of MS2 coat protein: 10.2 nM

## AAAUAACUUGAAGGAUAUGACCCUCGAGGUGACUAAAAGUCACCUCGAGGGUCAGAAGGUCGAGGAUCACCCGACCUAAAUAAA [#SharedSequence SLExNG1: 6-1] (puzzle (switch architecture): Small Loop Exclusion NG 1)
MS2 coat protein [1]; input ligand: FMN 200 uM
  apparent KD of MS2 coat protein: 6.69 nM
MS2 coat protein [1]; input ligand: none
  apparent KD of MS2 coat protein: 7.14 nM

## ACAGGUCGUGAGAAGGCGUGUGGCACCGUCGAAAGACGGUGCAAUUAAGAUCUUCGAGGAUCACCCGAGGAUAUCACGACCUGA [#SharedSequence - IExNG2: 18] (puzzle (switch architecture): Inverted Exclusion NG 2)
MS2 coat protein [1]; input ligand: FMN 200 uM
  apparent KD of MS2 coat protein: 70.4 nM
MS2 coat protein [1]; input ligand: none
  apparent KD of MS2 coat protein: 18.6 nM

## ACCAUUUACUAAUCCUCUAUACAUGAGGAUCACCCAUGUUCUGAGGAUAUCAUCGUUCGCCGCGUUGAGAAGGCAGAGCAUUCG [AriestionMod 1 - Jieux - Exclusion NG 3]
MS2 coat protein [2]; input ligand: FMN 200 uM
  apparent KD of MS2 coat protein: 40.8 nM
MS2 coat protein [2]; input ligand: none
  apparent KD of MS2 coat protein: 26.8 nM

## AGGAGAAAUGUAGGAUAUGGGCGGGCGUACGGGCAAAGCGCGUACGCCCGCCCAGAAGGACAUGAGGAUCACCCAUGUUUCCCU [#Lowering the energy 1] (puzzle (switch architecture): Small Loop Exclusion NG 1)
MS2 coat protein [1]; input ligand: FMN 200 uM
  apparent KD of MS2 coat protein: 16 nM
MS2 coat protein [1]; input ligand: none
  apparent KD of MS2 coat protein: 14.5 nM

## AGGCAGCACUGCUACGUGGCCUCACAUGAGGAUCACCCAUGUAAGGAUAUCGGGUAGCAUUACCACGAGAAGGUACAUAAGAGG [Ceisle] (puzzle (switch architecture): Exclusion NG 3)
MS2 coat protein [1]; input ligand: FMN 200 uM
  apparent KD of MS2 coat protein: 25.8 nM
MS2 coat protein [1]; input ligand: none
  apparent KD of MS2 coat protein: 15 nM

## CCUGCACCUCAAGGAUAUCCAGUCGAAACGACUGGAGAAGGUGAGGAUCACCCACCUAGCCUGACGAAAGUCAGGCAUGCAGGA [#SharedSequence - ExNG1-1] (puzzle (switch architecture): Exclusion NG 1)
MS2 coat protein [1]; input ligand: FMN 200 uM
  apparent KD of MS2 coat protein: 32.8 nM

## GAGGACUGUAAUAAUGUAGAAAUACAUGAGGAUCACCCAUGUAAGGAUAUCGUCAGGAAUACUGACGAGAAGGUACAUCAGUCC [Exclusion NG 3/10-A2]
MS2 coat protein [2]; input ligand: FMN 200 uM
  apparent KD of MS2 coat protein: 24.8 nM
MS2 coat protein [2]; input ligand: none
  apparent KD of MS2 coat protein: 17.3 nM

## GGUCGACUUCAAGGAUAUGGACUGCUUUGCAGUCCAGAAGGUGAGGAUCACCCAUCUACGGUCAGGUUUCUGACCGAUCGACCU [#AddUracilToBrourdLoops 8 - Jieux - Exclusion NG1] (puzzle (switch architecture): Exclusion NG 1)
MS2 coat protein [1]; input ligand: FMN 200 uM
  apparent KD of MS2 coat protein: 102 nM
MS2 coat protein [1]; input ligand: none
  apparent KD of MS2 coat protein: 73.4 nM

## GGUCGUCACAUAUACAUGAGGAUCACCCAUGUCAAAAGACAUGAGGAUAUGGAUCCUAAUUGGAUCCAGAAGGCAUGGACGACC [#HiddenHairpinInALoop - Mat - Same State NG 3 - JL Mod - D11] (puzzle (switch architecture): Same State NG 3)
MS2 coat protein [1]; input ligand: FMN 200 uM
  apparent KD of MS2 coat protein: 21.4 nM
MS2 coat protein [1]; input ligand: none
  apparent KD of MS2 coat protein: 412 nM

## GGUUGUUACGCAGGAUAUUGCCAACAGGCAGUAGGAUAUCCGAAAGGAGAAGGAUCGCCAACAGGCGAGAAGGGCGGGUUAACC [pwkr exNG2 2xF7 2FMN.10.5]
MS2 coat protein [2]; input ligand: FMN 200 uM
  apparent KD of MS2 coat protein: 121 nM
MS2 coat protein [2]; input ligand: none
  apparent KD of MS2 coat protein: 1240 nM

## GUAGCAUACCGAGGAUAUUCUCCGGAAAACCGGACAUGAGGAUCACCCAUGUGGCGAAAGCCUUGGGAGAAGGCGGAAUGCUAC [Xeinanis 75 29]
MS2 coat protein [3]; input ligand: FMN 200 uM
  apparent KD of MS2 coat protein: 18.6 nM
MS2 coat protein [3]; input ligand: none
  apparent KD of MS2 coat protein: 34.4 nM

## GUAGCUAUCGCAGGAUAUCCUCAGGCGAAAGCCACAUGAGGAUCACCCAUGUAAAUAAAGAAUUUGGAGAAGGGCGAUAGCUAC [jl-sng2-2.34 Eli mod]
MS2 coat protein [3]; input ligand: FMN 200 uM
  apparent KD of MS2 coat protein: 24.7 nM
MS2 coat protein [3]; input ligand: none
  apparent KD of MS2 coat protein: 374 nM

## GUCACGAAUGUAGGAUAUCGAGUGGAAUACACUCGAGAAGGACAUGAGGAUCACCCAUGUAAAAUGAAAGAUAAUAAACGUGAC [Exclsuion NG 1/2-B1]
MS2 coat protein [2]; input ligand: FMN 200 uM
  apparent KD of MS2 coat protein: 51.7 nM
MS2 coat protein [2]; input ligand: none
  apparent KD of MS2 coat protein: 18 nM

## UAGAAGUGGUGAGGAUAUGAAUACGGCUCAUUAUCCUACAUGAGGAUCACCCAUGUGGGUGGUCGUCAGAAGGCACUGCUAUCG [Edretirige]
MS2 coat protein [3]; input ligand: FMN 200 uM
  apparent KD of MS2 coat protein: 181 nM
MS2 coat protein [3]; input ligand: none
  apparent KD of MS2 coat protein: 32.3 nM

## UAGAUCACCGAAGGAUAUGGGCAGAGUCCCGCUACAUGAGGAUCACCCAUGUCAGUCGGUCGUUUUCAGAAGGUCGGAAUGAUU [Zadi]
MS2 coat protein [3]; input ligand: FMN 200 uM
  apparent KD of MS2 coat protein: 57.1 nM
MS2 coat protein [3]; input ligand: none
  apparent KD of MS2 coat protein: 19.4 nM

## UAUAAUCUUUAAGGAUAUGACUCCGUUUCGGAGUCAGAAGGUGAGGAUCACCCACCUAGCUCAGGGUCGUUUGACCCUGAGCAU [#AddUracilToBrourdLoops 9 - Jieux - Exclusion NG1] (puzzle (switch architecture): Exclusion NG 1)
MS2 coat protein [1]; input ligand: FMN 200 uM
  apparent KD of MS2 coat protein: 10.6 nM
MS2 coat protein [1]; input ligand: none
  apparent KD of MS2 coat protein: 8.87 nM

## UAUAUAAUUAAGAGCUGGUCCAAAACAUGAGGAUCACCCAUGUAGGAUAUCAGCACGAUAAGUGCUGAGAAGGACAACCAGCUC [Denovo 85]
MS2 coat protein [2]; input ligand: FMN 200 uM
  apparent KD of MS2 coat protein: 15.2 nM
MS2 coat protein [2]; input ligand: none
  apparent KD of MS2 coat protein: 17.2 nM

## UAUAUAUAGGCAGGAUAUACAUGUAUAUAUAAUAUAUUAUAUAUUAUUACAUGAGGAUCACCCAUGUAGAAGGGCCAUAAUAUA [LRO035_Exclusion NG 2]
MS2 coat protein [2]; input ligand: FMN 200 uM
  apparent KD of MS2 coat protein: 52.7 nM
MS2 coat protein [2]; input ligand: none
  apparent KD of MS2 coat protein: 30 nM

## UCACUCAAGUUAGGAUAUGGAUCGGAAAACGAUCCAGAAGGAACAUGAAAACAUGAGCAUCAGCCAUGUUCCAGAAACGAGUGA [SameSame 4 - Jieux - Same State NG 1]
MS2 coat protein [3]; input ligand: FMN 200 uM
  apparent KD of MS2 coat protein: 23.6 nM

## UCGACGAAAGUCGAACGAUGUAGCAGAAGGACAUGAGGAUCACCCAUGUCAGCUGUAACAGCCAUGUAGGAUAUGCUACAUCGG [salish99_ISLExNG3_007 #endbits investigation] (puzzle (switch architecture): Inverted Small Loop Exclusion NG 3)
MS2 coat protein [1]; input ligand: none
  apparent KD of MS2 coat protein: 4.42 nM

## UCGGCCCGGGAGAAGGACAUGAGGAUCACCCAUGUCGCCGGGCCCGGGAAACCGGGCCCGGCCAUGUAGGAUAUCCCGGGCCGA [#This is a good prank 2] (puzzle (switch architecture): Inverted Exclusion NG 2)
MS2 coat protein [1]; input ligand: FMN 200 uM
  apparent KD of MS2 coat protein: 4.79 nM
MS2 coat protein [1]; input ligand: none
  apparent KD of MS2 coat protein: 4.59 nM

## UCUGCUAUCGCAGGAUAUUACAUGGGAAAGAAUACAUGAGGAUCACCCAUGUAAAAGAUCAUAAAUAAGAAGGGCGAUAGCAGA [Lame State 7 - Jieux - Same State NG 2]
MS2 coat protein [3]; input ligand: FMN 200 uM
  apparent KD of MS2 coat protein: 116 nM
MS2 coat protein [3]; input ligand: none
  apparent KD of MS2 coat protein: 1530 nM

## UGUCGGAGCAGAGGAUAUUACAUGAGGAUCACCCAUGUAUGAACCAAUAGCUGGAAACAGCAAUGUAAGAAGGCUGCUCCGACA (puzzle (switch architecture): Exclusion NG 2)
MS2 coat protein [1]; input ligand: FMN 200 uM
  apparent KD of MS2 coat protein: 177 nM
MS2 coat protein [1]; input ligand: none
  apparent KD of MS2 coat protein: 12.3 nM

## UUACGUCCCGUUUACAUGAGGAUCACCCAUGUCGAAAGACAUGAGGAUAUGCUACCUAGUUGGUAGCAGAAGGCGUGGACGUCG [salish99_SSNG3_r02_005]
MS2 coat protein [3]; input ligand: FMN 200 uM
  apparent KD of MS2 coat protein: 87.1 nM
MS2 coat protein [3]; input ligand: none
  apparent KD of MS2 coat protein: 121 nM

## UUAUUUUUACAGAAGGUUUAAUAAUAUAUAAGAGAAGGAUAUGUAACAUGAGGAUCACCCAUGUUUCACCCAUAUGAGGAUCAU [Astosinvert#10] (puzzle (switch architecture): Inverted Exclusion NG 1)
MS2 coat protein [1]; input ligand: FMN 200 uM
  apparent KD of MS2 coat protein: 7.94 nM
MS2 coat protein [1]; input ligand: none
  apparent KD of MS2 coat protein: 8.28 nM

## UUCUGUGCCCAAAGUUAAAGCACAUGAGGAUCACCCAUGUGAAAGGAUAUGUGGCAUGUAAUGUUAUAGAAGGUUCACAAUCAA [Reveention]
MS2 coat protein [2]; input ligand: FMN 200 uM
  apparent KD of MS2 coat protein: 22.8 nM
MS2 coat protein [2]; input ligand: none
  apparent KD of MS2 coat protein: 14.2 nM
